Data as given in US20240350441A1, “PHARMACEUTICAL FORMULATION AND A PROCESS FOR ITS PREPARATION” (SAVA HEALTHCARE LTD, priority 2021, published 2024).

Key:
Format in all cases: in vivo, Female Swiss Albino mice
[1] = test system: Cyclophosphamide induced neutropenia; test: Cyclophosphamide induced neutropenia, hematological changes (Example 9)
Procedure: • 1. To induce neutropenia in mice by administration of cyclophosphamide. • 2. To determine the effect of treatments of pure Picroside 1 and the degraded Picroside 1 with salt on total WBC count, neutrophils, monocyte, lymphocytes and platelet count. • 3. To compare the effect of pure Picroside 1 and the degraded Picroside 1 with salt standard 2 μg G-CSF.
Cyclophosphamide was procured from Sigma Aldrich and G-CSF was procured from marketed formulation of Lupin limited, Lupifil (300). Female Swiss Albino mice weighing between 25-27 g were procured from National Institute of Biosciences, Pune.
(§1) Female Swiss Albino mice were randomized into different groups based on body weight as follows: • Group 1—cyclophosphamide control (CP control), • Group 2—pure Picroside 1 treated, • Group 3—the degraded Picroside 1 with salt and • Group 4—GCSF (granulocyte colony stimulating factor) treated groups. • On day 0, blood was withdrawn from all animals for basal hematological parameters. The animals of all the groups were injected with 150 mg/kg of cyclophosphamide through intraperitoneal route (i.p.). On Day 3, blood was withdrawn from all animals for total and differential count (neutrophils, lymphocytes, and monocytes). The animals were dosed with one additional dose of 100 mg/kg cyclophosphamide on Day 4. From day 5, the animals were administered with respective treatments through oral route in water as vehicle while group 1 was administered with placebo tablets for 5 consecutive days. On day 10, blood was withdrawn from all animals for Total and differential count (neutrophils, lymphocytes, and monocytes), WBCs, Platelets and AST (aspartate aminotransferase) and ALT (alanine aminotransferase).

[2] = test system: Cyclophosphamide induced hepatotoxicity; test: Cyclophosphamide induced hepatotoxicity, AST/ALT (Example 9); settings: for ALT (alanine aminotransferase) / AST (aspartate aminotransferase): day 10, after 5 days treatment from day 5, GCSF 2 μg
Procedure: as §1

[3] = test system: Cyclophosphamide induced neutropenia; test: Cyclophosphamide induced neutropenia, hematological parameters (Example 10)
Procedure: (§2) • 1. To induce neutropenia by administration of cyclophosphamide. • 2.
(§3) Materials: Female Swiss Albino mice weighing between 25-27 g was procured from Global Bioresearch Solutions Pvt Ltd., Pune.
(§4) On day 0, blood was withdrawn from all animals for basal hematological parameters. All the groups of animals except placebo group were injected with 150 mg/kg of cyclophosphamide through intraperitoneal route (i.p.), while group 1 was injected with water for injection, i.p. On Day 3, blood was withdrawn from all animals for Total and differential count (neutrophils, lymphocytes, and monocytes). The animals of group 2 to 7 were dosed with one additional dose of 100 mg/kg cyclophosphamide on Day 4. […] The cyclophosphamide control group was injected with water for injection from day 5 to day 9. On day 10, blood was withdrawn from all animals for total and differential count (neutrophils, lymphocytes, and monocytes), platelets, liver parameters AST (aspartate aminotransferase), ALT (alanine aminotransferase), and renal parameters—serum creatinine, blood urea nitrogen and uric acid.
(§5) • Pure Picroside 1—1 tablet was dissolved in 0.1 ml of sterile water for injection and 0.1 ml was injected as subcutaneous injection. • The degraded Picroside 1 without salt (cinnamic acid of the present disclosure)—1 tablet was dissolved in 0.1 ml of sterile water for injection and 0.1 ml was injected as subcutaneous injection. • The Cinnamic acid low dose (0.6 mg/tablet) treated tablet was dissolved in 0.1 ml of sterile water for injection and 0.1 ml was injected as subcutaneous injection. • The Cinnamic acid high dose treated (6 mg/tablet) tablet was dissolved in 0.1 ml of sterile water for injection and 0.1 ml was injected as subcutaneous injection.

[4] = test system: Cyclophosphamide induced hepatotoxicity and renal changes; test: Hepatic and renal parameters in cyclophosphamide induced neutropenia (Example 10); settings: for BUN (blood urea nitrogen) / SGOT Serum glutamic oxaloacetic transaminase / SGPT (Serum glutamic pyruvic transaminase) / Serum Creatinine / Uric acid: day 10, G-CSF 2 μg s.c., others 1 tablet per animal per day for 5 days
Procedure: as §2, §3, §4, §5

[5] = Day 0, basal, before cyclophosphamide
[6] = Day 3, after cyclophosphamide 150 mg/kg i.p., before treatment
[7] = Day 10, after 5 days treatment from day 5, GCSF 2 μg
[8] = compared to cyclophosphamide control group, Example 9
[9] = Day 0, basal, G-CSF 2 μg, Picroside tablets groups
[10] = Day 3, after cyclophosphamide, before treatment, G-CSF 2 μg, Picroside tablets groups
[11] = Day 10, treated day 5 for 5 days, G-CSF 2 μg s.c., others 1 tablet per animal per day
[12] = vs CP control, day 10, cinnamic acid at both 0.6 mg/tablet low dose and 6 mg/tablet high dose
[13] = vs CP control, cinnamic acid at both 0.6 mg/tablet low dose and 6 mg/tablet high dose

Molecule: O=C(/C=C/c1ccccc1)OC[C@H]1O[C@@H](O[C@@H]2OC=C[C@H]3[C@H](O)[C@@H]4O[C@]4(CO)[C@@H]23)[C@H](O)[C@@H](O)[C@@H]1O [Pure Picroside 1, Picroside 1]
- % Lymphocytes [1, 5]: 40.32 ± 1.56%
- % Monocytes [1, 5]: 7.32 ± 0.32^ %
- % Neutrophils [1, 5]: 43 ± 0.68%
- Platelet Count [1, 5]: 741600 ± 3476 per cu · mm of blood
- WBC Count [1, 5]: 7410 ± 414.90 per cu · mm of blood
- % Lymphocytes [1, 6]: 80.00 ± 1.92%
- % Monocytes [1, 6]: 1.50 ± 0.34^ %
- % Neutrophils [1, 6]: 7 ± 0.92%
- Platelet Count [1, 6]: 647900 ± 26900 per cu · mm of blood
- WBC Count [1, 6]: 1562 ± 145.90 per cu · mm of blood
- % Lymphocytes [1, 7]: 72.00 ± 1.46 %
- % Monocytes [1, 7]: 4.50 ± 0.34 %
- % Neutrophils [1, 7]: 12.66 ± 0.66 %
- Platelet Count [1, 7]: 653300 ± 26550 per cu · mm of blood
- WBC Count [1, 7]: 4380 ± 333.30 per cu · mm of blood
- Effect on % lymphocytes [1, 8]: significant (p<0.01) reduction in % lymphocytes
- Effect on % monocytes [1, 8]: significantly reversed
- Effect on platelet count [1, 8]: improved the platelet count significantly (p<0.001)
- Effect on total WBC count [1, 8]: significantly (p<0.001) reversed the cyclophosphamide induced decrease in WBC count
- Effect on % neutrophil ([1]; compared to cyclophosphamide/placebo control group, Example 9): significantly (p<0.01) alleviated the cyclophosphamide-induced neutropenia
- Effect on ALT [2, 8]: significant reversal (p<0.001)
- Effect on AST [2, 8]: significant (p<0.001) decrease in AST
- ALT (alanine aminotransferase) [2]: 37.32 ± 0.66 IU/L
- AST (aspartate aminotransferase) [2]: 43.66 ± 2.68 IU/L
- % Lymphocytes [3, 9]: 44.33%
- % Monocytes [3, 9]: 6.00%
- % Neutrophils [3, 9]: 41.00%
- No of Platelets [3, 9]: 735700 per cu · mm of blood
- Total WBC Count [3, 9]: 7301 per cu · mm of blood
- % Lymphocytes [3, 10]: 84%
- % Monocytes [3, 10]: 1.50%
- % Neutrophils [3, 10]: 6.50%
- No of Platelets [3, 10]: 631700 per cu · mm of blood
- Total WBC Count [3, 10]: 2365 per cu · mm of blood
- % Lymphocytes [3, 11]: 58.67%
- % Monocytes [3, 11]: 5.00%
- % Neutrophils [3, 11]: 28.33%
- No of Platelets [3, 11]: 626800 per cu · mm of blood
- Total WBC Count [3, 11]: 3674 per cu · mm of blood
- Anti-neutropenic activity (words) ([3]; inference from table 8A): shows better anti-neutropenic activity
- BUN (blood urea nitrogen) [4]: 9.483 mmol/L
- SGOT Serum glutamic oxaloacetic transaminase [4]: 25.67 IU/L
- SGPT (Serum glutamic pyruvic transaminase) [4]: 28.5 IU/L
- Serum Creatinine [4]: 46.8 µM
- Uric acid [4]: 30.00 mg/L
- Hepatic and renal parameters in neutropenic animal model ([4]; inference from table 8B, as compared to GCSF): improved hepatic and renal parameters

B1: GCSF: glycoprotein that stimulates the bone marrow to produce granulocytes and stem cells; marketed formulation of Lupin limited (protein, UniProt P09919 31-207, looked up)
Granulocyte …: TPLGPASSLPQSFLLKCLEQVRKIQGDGAALQEKLVSECATYKLCHPEELVLLGHSLGIPWAPLSSCPSQALQLAGCLSQLHSGLFLYQGLLQALEGISPELGPTLDTLQLDVADFATTIWQQMEELGMAPALQPTQGAMPAFASAFQRRAGGVLVASHLQSFLEVSYRVLRHLAQP
modifications: filgrastim (Lupifil)
notes: glycoprotein that stimulates the bone marrow to produce granulocytes and stem cells; marketed formulation of Lupin limited
- % Lymphocytes [1, 5]: 40.00 ± 3.22%
- % Monocytes [1, 5]: 7.32 ± 0.42%
- % Neutrophils [1, 5]: 42.16 ± 1.74%
- Platelet Count [1, 5]: 732400 ± 7528 per cu · mm of blood
- WBC Count [1, 5]: 7438 ± 626.20 per cu · mm of blood
- % Lymphocytes [1, 6]: 82.50 ± 1.40%
- % Monocytes [1, 6]: 1.32 ± 0.22%
- % Neutrophils [1, 6]: 7.16 ± 0.48%
- Platelet Count [1, 6]: 637100 ± 38470 per cu · mm of blood
- WBC Count [1, 6]: 1580 ± 235.00 per cu · mm of blood
- % Lymphocytes [1, 7]: 59.32 ± 2.24 %
- % Monocytes [1, 7]: 5.66 ± 0.48 %
- % Neutrophils [1, 7]: 26.00 ± 1.66 %
- Platelet Count [1, 7]: 690300 ± 15510 per cu · mm of blood
- WBC Count [1, 7]: 4518 ± 406.00 per cu · mm of blood
- Effect on % lymphocytes [1, 8]: reversed cyclophosphamide-induced lymphocyte recruitment significantly (p<0.001)
- Effect on platelet count [1, 8]: significant increase in platelet count
- Effect on total WBC count [1, 8]: significantly (p<0.001) reversed the cyclophosphamide induced decrease in WBC count
- Effect on AST [2, 8]: significant (p<0.001) reduction in AST
- ALT (alanine aminotransferase) [2]: 36.16 ± 0.70 IU/L
- AST (aspartate aminotransferase) [2]: 45.16 ± 2.72 IU/L
- % Lymphocytes [3, 9]: 45.5%
- % Monocytes [3, 9]: 6.00%
- % Neutrophils [3, 9]: 41.33%
- No of Platelets [3, 9]: 752200 per cu · mm of blood
- Total WBC Count [3, 9]: 7255 per cu · mm of blood
- % Lymphocytes [3, 10]: 83.5%
- % Monocytes [3, 10]: 1.833%
- % Neutrophils [3, 10]: 6.667%
- No of Platelets [3, 10]: 645800 per cu · mm of blood
- Total WBC Count [3, 10]: 2617 per cu · mm of blood
- % Lymphocytes [3, 11]: 50.17%
- % Monocytes [3, 11]: 5.167%
- % Neutrophils [3, 11]: 36.67%
- No of Platelets [3, 11]: 674900 per cu · mm of blood
- Total WBC Count [3, 11]: 6030 per cu · mm of blood
- Effect on % lymphocytes [3, 12]: significant (p<0.001) decrease in % lymphocytes
- Effect on % monocytes [3, 12]: significantly (p<0.001) reversed
- Effect on platelet count [3, 12]: significant (p<0.05) increase in platelet count
- Effect on total WBC count [3, 12]: significantly (p<0.001) reversed the cyclophosphamide induced decrease in WBC count
- BUN (blood urea nitrogen) [4]: 9.633 mmol/L
- SGOT Serum glutamic oxaloacetic transaminase [4]: 32.17 IU/L
- SGPT (Serum glutamic pyruvic transaminase) [4]: 34.33 IU/L
- Serum Creatinine [4]: 44.5 µM
- Uric acid [4]: 26.33 mg/L
- Effect on BUN level [4, 13]: significant (p<0.001) decrease in BUN level
- Effect on SGOT level [4, 13]: significant (p<0.001) reduction in SGOT
- Effect on serum creatinine level [4, 13]: significant (p<0.001) reduction in creatinine level
- Effect on uric acid level [4, 13]: significant decrease in uric acid levels (p<0.001)
